In PMC12742838, “Discovery and structural investigation of Varicella-Zoster virus gE-neutralizing antibodies isolated from a convalescent patient” (Protein & Cell, 2025):

B1: Fab WLL-28 (Fab, V domains shown)
VH: EVQLVQSGAEVKKPGEPLKISCKASGYNFANFWVGWVRQMPGRGLEWMGVIFPADSDTRYSPSFQGQVIISADKSTNTAYLQWSSLKASDSAMYYCARHVRGSLWGGGGYWGQGTLVTVSS
VL: EIVMTQSPSTLSVSPGEGATLSCRASQSVNNDLAWYQQKPGQAPRLLINGASTRATGIPARFTGSGSGTEFTLTISSLQPEDFAVYFCQQYNDWPRTFGQGTKVEIK
B2: Varicella-zoster virus glycoprotein E (gE), recombinant protein, tag not told for these experiments (natural protein)
chain: SVLRYDDFHTDEDKLDTNSVYEPYYHSDHAESSWVNRGESSRKAYDHNSPYIWPRNDYDGFLENAHEHHGVYNQGRGIDSGERLMQPTQMSAQEDLGDDTGIHVIPTLNGDDRHKIVNVDQRQYGDVFKGDLNPKPQGQRLIEVSVEENHPFTLRAPIQRIYGVRYTETWSFLPSLTCTGDAAPAIQHICLKHTTCFQDVVVDVDCAENTKEDQLAEISYRFQGKKEADQPWIVVNTSTLFDELELDPPEIEPGVLKVLRTEKQYLGVYIWNMRGSDGTSTYATFLVTWKGDEKTRNPTPAVTPQPRGAEFHMWNYHSHVFSVGDTFSLAMHLQYKIHEAPFDLLLEWLYVPIDPTCQPMRLYSTCLYHPNAPQCLSHMNSGCTFTSPHLAQRVASTVYQNCEHADNYTAYCLGISHMEPSFGLILHDGGTTLKFVDTPESLSGLYVFVVYFNGHVEAVAYTVVSTVDHFVNAIEERGFPPTAGQPPATTKPKEITPVNPGTSPLLR
notes: glycoprotein E (gE) of Varicella-zoster virus; Methods are in the Supplementary Materials; also called gE protein
B3: Fab WLL-1 (Fab, V domains shown)
VH: QITLKESGPTLVKPTQTLTLTCTFSGFSLTNTEMTVGWIRRPPGKALEWLALIYWDDDKRYSPSLRSRLTITKDTSKNQVVLKMTNMDPVDTATYYCARLSLRLLTFDYWGQGTLVTVSS
VL: SYVVTQPPSVSVAPRQTARITCGGSNIGSKSVHWHQQKPGQAPVLVVYDDSDRPSGIPERFSGSNSGNTATLTITRVEAGDEADYYCQVWDSSGDHPLFGGGTKLTVL

Tests used:
[1] = biological target: T1, Varicella-zoster virus glycoprotein E (gE), recombinant protein, tag not told for these experiments (Varicella-zoster virus, UniProt P09259); experiment: cryo-EM structure; ternary complex Fab WLL-1/Fab WLL-28/gE, resolved at 3.36 Å; only the gI-binding domain of gE is seen; conditions: both partners purified
T1 construct: glycoprotein E (gE) of Varicella-zoster virus; Methods are in the Supplementary Materials; also called gE protein

[2] = biological target: T2, recombinant soluble insulin-degrading enzyme (rIDE, residues 42-1,019) (UniProt P14735 42-1019); experiment: SPR; dissociation constant of gE to rIDE; conditions: both partners purified
T2 construct: insulin-degrading enzyme (IDE), cellular receptor of VZV gE, residues 42-1,019; Tags and host are probably in the Supplementary Materials; also called rIDE receptor protein; source: recombinant, purified

Binder	binding result [1]	Kd [2] [µM]
B1	binds	–
B2	–	~0.01
B3	binds	–
